Columns and labels:
[1] = target: RIPR EGF 9+ (L898 - N1086) (P. falciparum, UniProt O97302 898-1086, N964Q | N1021Q); test: SPR
RIPR EGF 7+ = test: SPR
RIPR EGF 6+ = test: SPR
RIPR EGF 8+ = test: SPR
[2] = target: T1, full-length RIPR (RH5-interacting protein) (P. falciparum, UniProt O97302 20-1086); test: BLI; 2:1 heterogeneous ligand fit, KD1
RIPR-Tail (D717 - N1086) [3] = target: T2, RIPR-Tail (D717 - N1086) (P. falciparum, UniProt O97302 717-1086, N964Q | N1021Q); test: SPR; RIPR-Tail immobilised, steady state
RIPR-Tail (D717 - N1086) [4] = target: T2, RIPR-Tail (D717 - N1086); test: SPR; PTRAMP-CSS immobilised, steady state
[5] = target: T1, full-length RIPR (RH5-interacting …); test: BLI; 2:1 heterogeneous ligand fit, KD2 (second site)
[6] = target: mono-biotinylated RIPR-Tail (P. falciparum, UniProt O97302 717-1086, N964Q | N1021Q, biotin on the BAP tag (mono-biotinylated by co-transfected BirA)); test: SPR

| Binder | Kd [1] [µM] | Kd (RIPR EGF 7+) [µM] | Kd (RIPR EGF 6+) [µM] | Kd (RIPR EGF 8+) [µM] | Kd [2] [µM] | Kd (RIPR-Tail (D717 - N1086) [3]) [µM] | Kd (RIPR-Tail (D717 - N1086) [4]) [µM] | Kd [5] [µM] | Kd [6] [µM] |
| --- | --- | --- | --- | --- | --- | --- | --- | --- | --- |
| PTRAMP-CSS heterodimer (complex) chain 1: CNLKVRNNWEHFLQVYQNNGNFKMEILEPECTIQKNLPSEEEKEEFIDFDRKELLLHDFVVIKNSQFTDEKTLELYLSKEENNKSYLMLTFYLGDLKLMIGHNSPYEISLILNVATVNKNMSNCKNNSYNIVLLKTTDVFNTSDLEILEGPIQFSLGKSSGAFRINVTNFFLNNTWKAFTKDKISFLIKPEENCYTILENKINKPQLLIEKKTTFYSEWGEWSNCSMDCDHPDNVQIRERECIHPSGDCFKGDLKESRPCIIPLPPCNELFSHKDNST chain 2: QDEKSVKNICVCDFTDKLNFLPLEKTKILCELKPQYGEDIKIIANKEYEINCMNNSKVFCPLKDTFINNTNIKLYSPKLHFEIKDITHKGKNAALYYLKIDEEASDIFFSCSIKPKQVSGLLEGEVRVNLKKHINEEYSIFNEEEDVHVCDFSKGNLDITPSAGFYLKNSRNVSCIYRVIPNKLFLIKLPKLDIVTEKLLPSIVNCLSEFSFINFTLKHVQEGDNYISFNVIFGEFKKHFNLTCSLDLSDFQQEPCNLGKTANITFIFSK | 6.44 | 2.35 | 5.15 | 3.55 | 0.00113 | 5.69 | 6.23 | 0.176 |  |
| CSS (cysteine-rich small secreted protein), residues Q21-K290 (natural protein) QDEKSVKNICVCDFTDKLNFLPLEKTKILCELKPQYGEDIKIIANKEYEINCMNNSKVFCPLKDTFINNTNIKLYSPKLHFEIKDITHKGKNAALYYLKIDEEASDIFFSCSIKPKQVSGLLEGEVRVNLKKHINEEYSIFNEEEDVHVCDFSKGNLDITPSAGFYLKNSRNVSCIYRVIPNKLFLIKLPKLDIVTEKLLPSIVNCLSEFSFINFTLKHVQEGDNYISFNVIFGEFKKHFNLTCSLDLSDFQQEPCNLGKTANITFIFSK |  |  |  |  |  |  |  |  | 0.95 |

— article doi:10.64898/2025.12.16.693247 (2025)
